Data on 34 variants can be found in the Human Domainome abundance scans (Beltran et al. 2025).

± gives the uncertainty stated by the source.

Sequences and labels used below:
B1: Transcriptional regulator ERG, residues 117 to 197; numbered along this chain, P11308 (parent)
chain: NMTTNERRVIVPADPTLWSTDHVRQWLEWAVKEYGLPDVNILLFQNIDGKELCKMTKDDFQRLTPSYNADILLSHLHYLRE

In the series the parent is B1. In words: abundance fitness (aPCA) (normalised: wild type 0, dead -1); higher = more abundant; growth selection in yeast, the domain comes from the species named. The following applies: Homo sapiens.
For the variant NMTTNERRVIVPADPTLWSTDHVRQWLEWAVKEYGLPDVNILLFQNFDGKELCKMTKDDFQRLTPSYNADILLSHLHYLRE [I47F], the abundance fitness was -0.176 ± 0.086.
Then NMTTNERRVIVPADPTLWSTDHVRQWLEWAVKEYGLPDVNILLFQNQDGKELCKMTKDDFQRLTPSYNADILLSHLHYLRE [I47Q], with -1.08 ± 0.25; and NMTTNERRVIVPADPTLWSTDHVRQWLEWAVKEYGLPDVNILLFQNVDGKELCKMTKDDFQRLTPSYNADILLSHLHYLRE [I47V], with 0.006 ± 0.042.
On to NMTTNERRVIVPADPTLWSTDHVRQWLEWAVKEYGLPDVNILLFQNYDGKELCKMTKDDFQRLTPSYNADILLSHLHYLRE [I47Y], for which the abundance fitness is -0.022 ± 0.11.
As for NMTTNERRVIVPADPTLWSTDHVRQWLEWAVKEYGLPDVNILLFQNHDGKELCKMTKDDFQRLTPSYNADILLSHLHYLRE [I47H], the abundance fitness is -0.251 ± 0.13.
To NMTTNERRVIVPADPTLWSTDHVRQWLEWAVKEYGLPDVNILLFQNADGKELCKMTKDDFQRLTPSYNADILLSHLHYLRE [I47A] belongs -0.521 ± 0.077.
NMTTNERRVIVPADPTLWSTDHVRQWLEWAVKEYGLPDVNILLFQNPDGKELCKMTKDDFQRLTPSYNADILLSHLHYLRE [I47P]: the abundance fitness was -0.99 ± 0.21.
On to NMTTNERRVIVPADPTLWSTDHVRQWLEWAVKEYGLPDVNILLFQNTDGKELCKMTKDDFQRLTPSYNADILLSHLHYLRE [I47T], for which the abundance fitness is -0.242 ± 0.068.
To NMTTNERRVIVPADPTLWSTDHVRQWLEWAVKEYGLPDVNILLFQNEDGKELCKMTKDDFQRLTPSYNADILLSHLHYLRE [I47E] belongs -0.712 ± 0.11; to NMTTNERRVIVPADPTLWSTDHVRQWLEWAVKEYGLPDVNILLFQNDDGKELCKMTKDDFQRLTPSYNADILLSHLHYLRE [I47D], -0.789 ± 0.21.
Then NMTTNERRVIVPADPTLWSTDHVRQWLEWAVKEYGLPDVNILLFQNLDGKELCKMTKDDFQRLTPSYNADILLSHLHYLRE [I47L], with -0.046 ± 0.045; and NMTTNERRVIVPADPTLWSTDHVRQWLEWAVKEYGLPDVNILLFQNCDGKELCKMTKDDFQRLTPSYNADILLSHLHYLRE [I47C], with -0.163 ± 0.071.
To NMTTNERRVIVPADPTLWSTDHVRQWLEWAVKEYGLPDVNILLFQNSDGKELCKMTKDDFQRLTPSYNADILLSHLHYLRE [I47S] belongs -0.751 ± 0.11; to NMTTNERRVIVPADPTLWSTDHVRQWLEWAVKEYGLPDVNILLFQNWDGKELCKMTKDDFQRLTPSYNADILLSHLHYLRE [I47W], -0.653 ± 0.075; to NMTTNERRVIVPADPTLWSTDHVRQWLEWAVKEYGLPDVNILLFQNNDGKELCKMTKDDFQRLTPSYNADILLSHLHYLRE [I47N], -0.492 ± 0.2.
On to NMTTNERRVIVPADPTLWSTDHVRQWLEWAVKEYGLPDVNILLFQNRDGKELCKMTKDDFQRLTPSYNADILLSHLHYLRE [I47R], for which the abundance fitness was -0.609 ± 0.061.
To NMTTNERRVIVPADPTLWSTDHVRQWLEWAVKEYGLPDVNILLFQNKDGKELCKMTKDDFQRLTPSYNADILLSHLHYLRE [I47K] belongs -0.255 ± 0.066.
To NMTTNERRVIVPADPTLWSTDHVRQWLEWAVKEYGLPDVNILLFQNIDTKELCKMTKDDFQRLTPSYNADILLSHLHYLRE [G49T] belongs -1.11 ± 0.2; to NMTTNERRVIVPADPTLWSTDHVRQWLEWAVKEYGLPDVNILLFQNIDKKELCKMTKDDFQRLTPSYNADILLSHLHYLRE [G49K], -0.945 ± 0.15; to NMTTNERRVIVPADPTLWSTDHVRQWLEWAVKEYGLPDVNILLFQNIDLKELCKMTKDDFQRLTPSYNADILLSHLHYLRE [G49L], -0.833 ± 0.096.
Then NMTTNERRVIVPADPTLWSTDHVRQWLEWAVKEYGLPDVNILLFQNIDVKELCKMTKDDFQRLTPSYNADILLSHLHYLRE [G49V], with -0.895 ± 0.092.
On to NMTTNERRVIVPADPTLWSTDHVRQWLEWAVKEYGLPDVNILLFQNIDIKELCKMTKDDFQRLTPSYNADILLSHLHYLRE [G49I], for which the abundance fitness is -1.4 ± 0.5.
Then NMTTNERRVIVPADPTLWSTDHVRQWLEWAVKEYGLPDVNILLFQNIDWKELCKMTKDDFQRLTPSYNADILLSHLHYLRE [G49W], with -1.04 ± 0.13; and NMTTNERRVIVPADPTLWSTDHVRQWLEWAVKEYGLPDVNILLFQNIDSKELCKMTKDDFQRLTPSYNADILLSHLHYLRE [G49S], with -0.737 ± 0.081; and NMTTNERRVIVPADPTLWSTDHVRQWLEWAVKEYGLPDVNILLFQNIDMKELCKMTKDDFQRLTPSYNADILLSHLHYLRE [G49M], with -0.678 ± 0.14.
Then NMTTNERRVIVPADPTLWSTDHVRQWLEWAVKEYGLPDVNILLFQNIDYKELCKMTKDDFQRLTPSYNADILLSHLHYLRE [G49Y], with -1.14 ± 0.25; and NMTTNERRVIVPADPTLWSTDHVRQWLEWAVKEYGLPDVNILLFQNIDQKELCKMTKDDFQRLTPSYNADILLSHLHYLRE [G49Q], with -0.836 ± 0.19.
To NMTTNERRVIVPADPTLWSTDHVRQWLEWAVKEYGLPDVNILLFQNIDFKELCKMTKDDFQRLTPSYNADILLSHLHYLRE [G49F] belongs -0.816 ± 0.18; to NMTTNERRVIVPADPTLWSTDHVRQWLEWAVKEYGLPDVNILLFQNIDRKELCKMTKDDFQRLTPSYNADILLSHLHYLRE [G49R], -0.8 ± 0.069.
In the case of NMTTNERRVIVPADPTLWSTDHVRQWLEWAVKEYGLPDVNILLFQNIDDKELCKMTKDDFQRLTPSYNADILLSHLHYLRE [G49D], the abundance fitness is -0.874 ± 0.14.
To NMTTNERRVIVPADPTLWSTDHVRQWLEWAVKEYGLPDVNILLFQNIDAKELCKMTKDDFQRLTPSYNADILLSHLHYLRE [G49A] belongs -0.837 ± 0.083; to NMTTNERRVIVPADPTLWSTDHVRQWLEWAVKEYGLPDVNILLFQNIDNKELCKMTKDDFQRLTPSYNADILLSHLHYLRE [G49N], -1.08 ± 0.31.
For NMTTNERRVIVPADPTLWSTDHVRQWLEWAVKEYGLPDVNILLFQNIYGKELCKMTKDDFQRLTPSYNADILLSHLHYLRE [D48Y], the abundance fitness is -1 ± 0.32.
To NMTTNERRVIVPADPTLWSTDHVRQWLEWAVKEYGLPDVNILLFQNIHGKELCKMTKDDFQRLTPSYNADILLSHLHYLRE [D48H] belongs -0.282 ± 0.11.
